Target: T1, Mouse TRAIL-R2-Fc (mouse, UniProt Q9QZM4 53-180)
T1 construct: mouse TRAIL-R2; Named in the materials only; source: bought: Sino Biological Inc. (50412-M03H)
Assay: ELISA; Fc fusion proteins of human and mouse TRAIL receptors coated (200 ng/well); 40 nM scTRAIL units; detected with anti-FLAG-HRP; relative OD450
Conditions: both partners purified

T1 sequence (Q9QZM4 53-180): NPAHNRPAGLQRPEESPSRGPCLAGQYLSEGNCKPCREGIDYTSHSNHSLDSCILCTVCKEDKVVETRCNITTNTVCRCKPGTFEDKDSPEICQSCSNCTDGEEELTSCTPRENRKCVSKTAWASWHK

B1: Fc-scTRAIL (Fc fusion, human)
chain: GPQRVAAHITGTRGRSNTLSSPNSKNEKALGRKINSWESSRSGHSFLSNLHLRNGELVIHEKGFYYIYSQTYFRFQEEIKENTKNDKQMVQYIYKYTSYPDPILLMKSARNSCWSKDAEYGLYSIYQGGIFELKENDRIFVSVTNEHLIDMDHEASFFGAFLVGGGPQRVAAHITGTRGRSNTLSSPNSKNEKALGRKINSWESSRSGHSFLSNLHLRNGELVIHEKGFYYIYSQTYFRFQEEIKENTKNDKQMVQYIYKYTSYPDPILLMKSARNSCWSKDAEYGLYSIYQGGIFELKENDRIFVSVTNEHLIDMDHEASFFGAFLVGGGPQRVAAHITGTRGRSNTLSSPNSKNEKALGRKINSWESSRSGHSFLSNLHLRNGELVIHEKGFYYIYSQTYFRFQEEIKENTKNDKQMVQYIYKYTSYPDPILLMKSARNSCWSKDAEYGLYSIYQGGIFELKENDRIFVSVTNEHLIDMDHEASFFGAFLVG
notes: human TRAIL, first protomer of single-chain TRAIL (scTRAIL), amino acids 118-281; single glycine residue as linker between the TRAIL protomers; human TRAIL, second protomer of scTRAIL, amino acids 118-281; human TRAIL, third protomer of scTRAIL, amino acids 118-281; scTRAIL is fused to the C-terminus of the human gamma1 Fc; disulfide-linked dimer (hexavalent TRAIL); also called non-targeted …
binding result: binds

Reference: article PMC5834252, “Targeting scFv-Fc-scTRAIL fusion proteins to tumor cells” (Oncotarget, 2018)
